The values below are quoted from earlier work in publication PMC11155677.

For this series, the target named is Lys115 (UniProt position 115, LSAYPKKLGYP).

As to “Acetoacetate decarboxylase (AADase) (not stated (Clostridium acetobutylicum inferred))”, the pKa was 6.
